The supplement of paper PMC9112550, “Optimization of the antimicrobial peptide Bac7 by deep mutational scanning” (BMC Biology, 2022)

What follows are sequences tested on Escherichia coli TOP10 (assay: shrunken log2 fold change of peptide-encoding DNA abundance (4.5 h post-induction vs induction); higher = less antimicrobial activity (less host growth inhibition)). Conditions: time post-induction: 4.5 h; library: site-saturation at positions 5, 18, 19, 20.
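Note: peptides expressed intracellularly from a pBAD plasmid library in pooled LB shake-flask culture, induced with 0.3% L-arabinose, DNA abundance read by NGS, three biological replicates, DESeq2 with apeglm shrinkage.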

Sequence	shrunken log2 fold change
RRIRHRPPRLPRPRPRPPDWPRP	0.536
RRIRHRPPRLPRPRPRPPECPRP	0.331
RRIRHRPPRLPRPRPRPPEQPRP	-0.000687
RRIRHRPPRLPRPRPRPPFVPRP	0.0135
RRIRHRPPRLPRPRPRPPGHPRP	0.184
RRIRHRPPRLPRPRPRPPHAPRP	0.334
RRIRHRPPRLPRPRPRPPHEPRP	0.181
RRIRHRPPRLPRPRPRPPIGPRP	0.0617
RRIRHRPPRLPRPRPRPPIYPRP	-0.204
RRIRHRPPRLPRPRPRPPKDPRP	0.105
RRIRHRPPRLPRPRPRPPLAPRP	0.378
RRIRHRPPRLPRPRPRPPLWPRP	0.323
RRIRHRPPRLPRPRPRPPPHPRP	0.703
RRIRHRPPRLPRPRPRPPPRPRP	1.25
RRIRHRPPRLPRPRPRPPQCPRP	0.178
RRIRHRPPRLPRPRPRPPQQPRP	0.6
RRIRHRPPRLPRPRPRPPRPPRP	0.664
RRIRHRPPRLPRPRPRPPTCPRP	0.0978
RRIRHRPPRLPRPRPRPQAGPRP	-0.0176
RRIRHRPPRLPRPRPRPQAIPRP	-0.119
RRIRHRPPRLPRPRPRPQCLPRP	-0.0192
RRIRHRPPRLPRPRPRPQDDPRP	0.0649

Sequence	shrunken log2 fold change
RRIRHRPPRLPRPRPRPQDKPRP	-0.355
RRIRHRPPRLPRPRPRPQHIPRP	-0.595
RRIRHRPPRLPRPRPRPQHKPRP	-0.494
RRIRHRPPRLPRPRPRPQHSPRP	-0.376
RRIRHRPPRLPRPRPRPQHWPRP	-0.00395
RRIRHRPPRLPRPRPRPQIKPRP	-0.889
RRIRHRPPRLPRPRPRPQIRPRP	-0.207
RRIRHRPPRLPRPRPRPQIYPRP	-0.137
RRIRHRPPRLPRPRPRPQKAPRP	-0.0296
RRIRHRPPRLPRPRPRPQMDPRP	-0.106
RRIRHRPPRLPRPRPRPQNSPRP	-0.423
RRIRHRPPRLPRPRPRPQNTPRP	-0.871
RRIRHRPPRLPRPRPRPQPNPRP	-0.168
RRIRHRPPRLPRPRPRPQSGPRP	0.165
RRIRHRPPRLPRPRPRPQTIPRP	-0.793
RRIRHRPPRLPRPRPRPQVQPRP	0.0789
RRIRHRPPRLPRPRPRPQWDPRP	-0.0406
RRIRHRPPRLPRPRPRPQYAPRP	-0.00149
RRIRHRPPRLPRPRPRPQYNPRP	-0.655
RRIRHRPPRLPRPRPRPRAAPRP	0.368
RRIRHRPPRLPRPRPRPRAGPRP	0.638
RRIRHRPPRLPRPRPRPRAHPRP	0.216

Sequence	shrunken log2 fold change
RRIRHRPPRLPRPRPRPRDNPRP	0.0766
RRIRHRPPRLPRPRPRPRDWPRP	0.645
RRIRHRPPRLPRPRPRPREHPRP	-0.126
RRIRHRPPRLPRPRPRPRFMPRP	0.0821
RRIRHRPPRLPRPRPRPRGTPRP	-0.164
RRIRHRPPRLPRPRPRPRICPRP	0.0205
RRIRHRPPRLPRPRPRPRKPPRP	0.321
RRIRHRPPRLPRPRPRPRMAPRP	0.0651
RRIRHRPPRLPRPRPRPRMVPRP	-0.0236
RRIRHRPPRLPRPRPRPRNWPRP	0.0465
RRIRHRPPRLPRPRPRPRPCPRP	0.227
RRIRHRPPRLPRPRPRPRPIPRP	0.117
RRIRHRPPRLPRPRPRPRRRPRP	0.0874
RRIRHRPPRLPRPRPRPRSIPRP	-0.374
RRIRHRPPRLPRPRPRPRTNPRP	0.0589
RRIRHRPPRLPRPRPRPRWGPRP	0.255
RRIRHRPPRLPRPRPRPRWLPRP	0.144
RRIRHRPPRLPRPRPRPRYCPRP	-0.293
RRIRHRPPRLPRPRPRPRYHPRP	-0.315
RRIRHRPPRLPRPRPRPSACPRP	-0.0435
RRIRHRPPRLPRPRPRPSCAPRP	0.137
RRIRHRPPRLPRPRPRPSCPPRP	-0.217

Sequence	shrunken log2 fold change
RRIRHRPPRLPRPRPRPSCWPRP	-0.0721
RRIRHRPPRLPRPRPRPSDDPRP	-0.0349
RRIRHRPPRLPRPRPRPSDQPRP	0.0718
RRIRHRPPRLPRPRPRPSEYPRP	-0.787
RRIRHRPPRLPRPRPRPSFDPRP	-0.429
RRIRHRPPRLPRPRPRPSFMPRP	-0.699
RRIRHRPPRLPRPRPRPSFRPRP	-0.15
RRIRHRPPRLPRPRPRPSHCPRP	-0.0642
RRIRHRPPRLPRPRPRPSHLPRP	-0.0467
RRIRHRPPRLPRPRPRPSKEPRP	-0.0697
RRIRHRPPRLPRPRPRPSKFPRP	-0.64
RRIRHRPPRLPRPRPRPSLIPRP	0.954
RRIRHRPPRLPRPRPRPSLSPRP	-0.619
RRIRHRPPRLPRPRPRPSQWPRP	-0.451
RRIRHRPPRLPRPRPRPSQYPRP	-0.372
RRIRHRPPRLPRPRPRPSRNPRP	-0.134
RRIRHRPPRLPRPRPRPSRQPRP	0.212
RRIRHRPPRLPRPRPRPSSHPRP	-1.3
RRIRHRPPRLPRPRPRPSSYPRP	-0.649
RRIRHRPPRLPRPRPRPSTPPRP	-0.225
RRIRHRPPRLPRPRPRPSVIPRP	-0.369
RRIRHRPPRLPRPRPRPSWEPRP	-0.0671

Sequence	shrunken log2 fold change
RRIRHRPPRLPRPRPRPSWLPRP	-0.0847
RRIRHRPPRLPRPRPRPSYMPRP	-0.00144
RRIRHRPPRLPRPRPRPTAMPRP	0.148
RRIRHRPPRLPRPRPRPTCAPRP	0.242
RRIRHRPPRLPRPRPRPTETPRP	0.146
RRIRHRPPRLPRPRPRPTFEPRP	0.0452
RRIRHRPPRLPRPRPRPTFPPRP	0.145
RRIRHRPPRLPRPRPRPTGSPRP	0.0528
RRIRHRPPRLPRPRPRPTIKPRP	-0.304
RRIRHRPPRLPRPRPRPTITPRP	-0.384
RRIRHRPPRLPRPRPRPTLDPRP	0.0219
RRIRHRPPRLPRPRPRPTLFPRP	0.267
RRIRHRPPRLPRPRPRPTMTPRP	-0.29
RRIRHRPPRLPRPRPRPTNQPRP	-0.425
RRIRHRPPRLPRPRPRPTPFPRP	0.177
RRIRHRPPRLPRPRPRPTPHPRP	0.281
RRIRHRPPRLPRPRPRPTPNPRP	-0.00791
RRIRHRPPRLPRPRPRPTQPPRP	0.306
RRIRHRPPRLPRPRPRPTTGPRP	-0.117
RRIRHRPPRLPRPRPRPTTNPRP	-0.348
RRIRHRPPRLPRPRPRPTWNPRP	-0.267
